These results are taken from CN113307874A (GUANGZHOU EXCELMAB BIOMEDICAL TECH CO LTD, dated 2021).

Residue numbers refer to the chain shown, from its start.

T1: 人LAG3抗原 (ACRO, Cat.LA3-H5222) (human, UniProt P18627 23-450)
T1 construct: Bought protein; also called human LAG3 antigen
T1 sequence (looked up): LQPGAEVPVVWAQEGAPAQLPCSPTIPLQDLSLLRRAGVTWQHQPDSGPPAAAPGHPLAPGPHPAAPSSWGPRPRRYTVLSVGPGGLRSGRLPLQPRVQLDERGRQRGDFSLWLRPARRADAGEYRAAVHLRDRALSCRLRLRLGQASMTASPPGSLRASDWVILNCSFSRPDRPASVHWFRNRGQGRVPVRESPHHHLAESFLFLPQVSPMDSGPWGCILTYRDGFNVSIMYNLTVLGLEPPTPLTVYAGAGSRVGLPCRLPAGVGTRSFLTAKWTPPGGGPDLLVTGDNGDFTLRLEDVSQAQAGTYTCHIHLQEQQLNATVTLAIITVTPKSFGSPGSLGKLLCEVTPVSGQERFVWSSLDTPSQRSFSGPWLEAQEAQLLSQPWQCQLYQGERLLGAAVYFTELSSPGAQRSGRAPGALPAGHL

T2: 过表达人LAG3抗原的Jurkat/LAG3细胞表面的人LAG3 (human, UniProt P18627 23-525)
T2 construct: whole, on cells; also called 过表达人LAG3的Jurkat细胞
T2 sequence (looked up): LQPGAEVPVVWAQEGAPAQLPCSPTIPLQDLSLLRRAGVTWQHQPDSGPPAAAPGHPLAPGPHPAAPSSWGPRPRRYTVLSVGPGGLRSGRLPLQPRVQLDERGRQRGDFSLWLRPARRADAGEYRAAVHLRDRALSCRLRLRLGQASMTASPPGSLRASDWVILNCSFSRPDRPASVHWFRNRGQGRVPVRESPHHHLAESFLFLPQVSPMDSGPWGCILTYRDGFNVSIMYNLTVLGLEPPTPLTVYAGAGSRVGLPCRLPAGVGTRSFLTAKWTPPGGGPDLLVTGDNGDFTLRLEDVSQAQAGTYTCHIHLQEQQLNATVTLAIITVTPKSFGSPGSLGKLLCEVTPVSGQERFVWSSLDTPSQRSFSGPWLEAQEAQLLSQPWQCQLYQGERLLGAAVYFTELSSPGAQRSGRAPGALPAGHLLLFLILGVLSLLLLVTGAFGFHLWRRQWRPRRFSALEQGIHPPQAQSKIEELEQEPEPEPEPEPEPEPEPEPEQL

B1: 人源化抗体 hmL42 (antibody, V domains shown)
VH: QVQLVQSGAEVKKPGASVKVSCKASGYTFTDYEVHWVKQAPGQGLEWMGAIHPGSGGAAYNQKVKGKVTMTADTSISTAYMELSRLRSDDTAVYYCTSYGWNDWGQGTTVTVS
VL: DIQLTQSPSFLSASVGDRVTITCKASQDVSTAVAWYQQKPGKSPKLLISWASTRHTGVPDRFAGSGSGTDFTLTISSLQPEDFATYYCQQYSSYPYTFGQGTKLEIK
B2: 鼠源抗LAG3抗体 mL42 (antibody, V domains shown)
VH: EVQLQQSGAELVRPGASVKLSCKALGYTFTDYEVHWLKQTPVRGLEWIGAIHPGSGGAAYNQKVKGKATLTADKSSSTAYMELSVLTSEDSAVYYCTSYGWNDWGQGTTLTVSS
VL: DILMNQSHKFMSTSVGDRVSIACKASQDVSTAVAWYQQKPGQSPKLLISWASTRHTGVPDRFAGSGSGTDFTLTINNVQSEDLADYFCQQYSSYPYTFGGGTKLELER
notes: detected with anti-human IgG secondary antibodies
B3: hmL42人源化亲和力成熟变体 R3D4 (antibody, V domains shown)
VH: B1 VH
VL: B1 VL with S92N, S93V, Y94F, P95A, Y96F
B4: hmL42人源化亲和力成熟变体 R2B11 (antibody, V domains shown)
VH: B1 VH
VL: B1 VL with S92V, S93V, Y94F, P95S, T97S
B5: hmL42人源化亲和力成熟变体 R3G4 (antibody, V domains shown)
VH: B1 VH
VL: B1 VL with S92I, S93D, Y94F, Y96F, T97V
B6: hmL42人源化亲和力成熟变体 R2G10 (antibody, V domains shown)
VH: B1 VH
VL: B1 VL with S92W, S93E, Y94F, P95S, Y96F
B7: hmL42人源化亲和力成熟变体 R2 (antibody, V domains shown)
VH: B1 VH
VL: B1 VL with Q89M, Q90G, S92L, S93F, Y94F
B8: hmL42人源化亲和力成熟变体 R2A8 (antibody, V domains shown)
VH: B1 VH
VL: B1 VL with Q89M, Q90G, S92W, S93V, Y94F
B9: hmL42人源化亲和力成熟变体 R3B5 (antibody, V domains shown)
VH: B1 VH
VL: B1 VL with S92V, S93R, Y94F, P95S
B10: hmL42人源化亲和力成熟变体 R3C4 (antibody, V domains shown)
VH: B1 VH
VL: B1 VL with S92V, S93A, Y94F, P95S, Y96F
B11: hmL42人源化亲和力成熟变体 R2C9 (antibody, V domains shown)
VH: B1 VH
VL: B1 VL with Q89M, Q90S, S92V, S93V, Y94F
B12: hmL42人源化亲和力成熟变体 R3G6 (antibody, V domains shown)
VH: B1 VH
VL: B1 VL with S92V, S93D, Y94F, Y96F, T97K
B13: hmL42人源化亲和力成熟变体 R2H11 (antibody, V domains shown)
VH: B1 VH
VL: B1 VL with S92Y, Y94W, P95S
B14: hmL42人源化亲和力成熟变体 R3G5 (antibody, V domains shown)
VH: B1 VH
VL: B1 VL with S92V, S93M, Y94F, Y96F
B15: hmL42人源化亲和力成熟变体 R3B6 (antibody, V domains shown)
VH: B1 VH
VL: B1 VL with S92L, Y94F, Y96F, T97M
B16: hmL42人源化亲和力成熟变体 R3C5 (antibody, V domains shown)
VH: B1 VH
VL: B1 VL with S92W, S93V, Y94W, P95D, T97V
B17: hmL42人源化亲和力成熟变体 R3H9 (antibody, V domains shown)
VH: B1 VH
VL: B1 VL with S92V, S93D, Y94F
B18: hmL42人源化亲和力成熟变体 R2D12 (antibody, V domains shown)
VH: B1 VH
VL: B1 VL with S92M, Y94F, P95A, Y96F
B19: hmL42人源化亲和力成熟变体 R2E8 (antibody, V domains shown)
VH: B1 VH
VL: B1 VL with Q89H, S92I, S93M, Y94F
B20: hmL42人源化亲和力成熟变体 R3H5 (antibody, V domains shown)
VH: B1 VH
VL: B1 VL with S92W, S93V, Y94F, P95S, Y96F

The target in one assay is T1, 人LAG3抗原 (ACRO, Cat.LA3-H5222). Kind of assay: indirect ELISA, coated human LAG3. In general terms: In an ELISA, binding on a coated surface is turned into a signal by an enzyme label.
B1: the binding result is “binds”.

As for B2, the binding result was “binds”.

Another assay deals with T2, 过表达人LAG3抗原的Jurkat/LAG3细胞表面的人LAG3. Kind of assay: indirect flow cytometry on Jurkat/LAG3 cells. Background: Flow cytometry measures light scatter and fluorescence of single cells or particles in a stream.
For B1, the binding result is “binds”.

For B2, the binding result is listed as “binds”.

A further assay deals with T1, 人LAG3抗原 (ACRO, Cat.LA3-H5222). Description: indirect ELISA, coated human LAG3. This is another data set of the same source.
Broadly, the EC50 is the concentration that produces a half-maximal response. Lower therefore signals an effect from little substance. With B3, the midpoint of the response, the EC50, lay at 0.112 µg/mL.

As to B4, the EC50 was 0.244 µg/mL.

As for B5, the EC50 turned out to be 0.175 µg/mL.

The molecule B6 gave an EC50 of 0.16 µg/mL.

For the molecule B7, the midpoint of the response, the EC50, lay at 0.202 µg/mL.

Molecule B8 came in with an EC50 of 0.132 µg/mL.

B9 returned an EC50 of 0.184 µg/mL.

The molecule B10 came in with an EC50 of 0.248 µg/mL.

Turning to B11, the concentration for a half-maximal effect (EC50) was determined as 0.221 µg/mL.

For the molecule B12, it took 0.206 µg/mL to reach a half-maximal effect (EC50).

B13 came in with an EC50 of 0.382 µg/mL.

For the molecule B14, the EC50 came out at 0.138 µg/mL.

Regarding B15, the EC50 came to 0.216 µg/mL.

Take B16: the EC50 is 0.437 µg/mL.

On to B17, for which a half-maximal response (EC50) required 0.183 µg/mL.

As for B18, the concentration for a half-maximal effect (EC50) worked out at 0.119 µg/mL.

Consider B19, for which the EC50 came to 0.204 µg/mL.

In turn, B20 gave an EC50 of 0.147 µg/mL.
